{"source": "paper PMC6929626", "about": "“PET/MRI enables simultaneous in vivo quantification of β-cell mass and function” (Theranostics, 2020)", "target": "T1, GLP-1R (Mus musculus, UniProt O35659)", "T1 construct": "high expression level of glucagon-like-peptide-1 receptor (GLP-1R) on the surface of β-cells enables their specific detection and quantification in the native pancreas; from tissue; host or cells: pancreas and insulinomas of living control and RIP1-Tag2 mice", "T1 sequence (O35659 22-463)": "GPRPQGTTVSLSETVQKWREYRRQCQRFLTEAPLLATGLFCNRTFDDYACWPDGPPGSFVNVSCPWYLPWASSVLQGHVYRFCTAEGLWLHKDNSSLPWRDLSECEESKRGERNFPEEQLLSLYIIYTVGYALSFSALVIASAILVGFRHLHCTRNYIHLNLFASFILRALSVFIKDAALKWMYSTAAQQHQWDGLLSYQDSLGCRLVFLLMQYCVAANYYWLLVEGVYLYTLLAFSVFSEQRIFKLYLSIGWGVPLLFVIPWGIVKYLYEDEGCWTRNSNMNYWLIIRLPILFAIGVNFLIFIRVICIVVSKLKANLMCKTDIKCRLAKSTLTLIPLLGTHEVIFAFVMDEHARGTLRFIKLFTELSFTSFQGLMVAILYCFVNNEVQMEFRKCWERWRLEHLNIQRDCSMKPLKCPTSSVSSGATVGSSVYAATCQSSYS", "set-up": "species or system mice", "conditions": "in vivo", "experimental": "In brief, mice were fasted for 4-6 hours and anesthetized with 1-2% isoflurane/O2 gas mixture (Vetland, Louisville, KY, USA) before the in vivo measurements. A tail vein catheter was initially placed for the co-injection of 50 µL of tracer solution (0.12 MBq/g bodyweight) and 50 µL of MnCl2:Bicine solution (75 µmol/kg body weight). The animals were placed in supine position on the bed in order to attenuate the motion artifacts rising from the respiratory movements. Thus, [^64Cu]Ex4 and MnCl2 solution were co-injected i.v. as a bolus a few seconds after the beginning of dynamic PET measurements. […] PET quantification was performed by 20-min static frames acquired simultaneously with 7T MRI scanner using a compatible PET-insert or consecutively using an Inveon-PET scanner (Inveon Dedicated PET, Siemens Healthineers, Knoxville, TN, USA). […] During the acquisition, we monitored the breathing with an MR-compatible breathing sensor. […]\nThe volume of interest (VOI) for the entire pancreas (Pancreas^Control; Pancreas^RIP1-Tag2) and the detected insulinomas (Insulinomas^RIP1-Tag2) were manually drawn in Inveon Research Workplace (Siemens Heathineers) after co-registration of the PET images. […] The co-registered VOIs were exported and analyzed in MATLAB (R2013b; The MathWorks, Natick, MA, USA) using an in-house script. […] For the quantification, we considered voxels with R1 values between 0.4 and 10 s^-1. […]"}
{"substance": "[^64Cu]Cu-NODAGA-^40Lys-Exendin-4 [[^64Cu]Ex4]", "values": [{"measurement": "dynamic PET curve of pancreatic uptake", "result": "stable pancreatic uptake after 20 min until 1 h"}]}
